From US20160045487A1, “COMPOSITIONS AND METHODS FOR TREATING NEUROPATHY” (CHILDEREN'S MEDICAL CENTER CORPORATION, priority 2013, published 2016)
One block for each molecule: values may come before it.

Key:
GFRα3/RET = target: T1, GFRα3/RET (UniProt O60609+P35546); experiment: RET phosphorylation in N2A cells transfected with GFRα3; assay type: cell-based, human GFRα3 in murine N2A cells; settings: 1 nM ARTN
T1 construct: N2A cells (which express RET) transfected with GFRα1 or GFRα3 expression constructs; expressed in transfected cells; host or cells: Neuro2A (N2A) cells; GFRα3 plasmid was a gift from Dr. Milbrandt; RET is endogenous
Method: (§1) Since the original report argued that XIB4035 displaces GDNF binding to GFRα1 expressing cells (FIG. 2 in Tokugawa et al., Neurochem Int 42, 81-86 (2003).), potentially ARTN, on TH-luciferase activity and Ret phosphorylation. […] In this experiment, cells were treated with GDNF or ARTN with or without XIB4035 for 10 minutes and cell lysates were either collected immediately or treatment was washed out and replaced with growth media for 30, 60, or 120 minutes. […] Therefore, we tested cells expressing only one GFRα using either N2A cells (which express RET) transfected with GFRα1 or GFRα3 expression constructs, or B(E)2-C cells, which express only GFRα2 together with RET. […] The GFRα1 or GFRα3 transfected N2A cells were then treated with XIB4035 alone, the appropriate ligand for the expressed receptor alone, or XIB4035 and ligand in combination for 10 minutes, and collected lysates immediately after treatment or 60 minutes after washout. […] Similar results were obtained with GFRα2 and NRTN using B(E)2-C cells (FIG. 8). Thus, XIB4035 is a positive modulator of signaling by GDNF family ligands and their receptors, not an agonist for GFRα1 as previously reported.
(§2) For phosphorylated Ret immunoblot experiments, cells were treated with various combinations of molecules for 10 minutes and either collected immediately or had treatment washed out and returned to control treatment media for the times indicated prior to cell collection. Lysates were collected in buffer containing: 50 mM Tris-HCL, 1% TX-100, 0.25% Deoxycholic acid, 150 mM sodium chloride, 1 mM EDTA, 0.1 mM sodium fluoride, 0.1 mM sodium pyrophosphate, 0.02 mM sodium orthovanadate, and protease inhibitors Immunoblots were blocked in 5% bovine serum albumin in tris-buffered saline+0.2% Tween 20+0.1 mM sodium fluoride, 0.1 mM sodium pyrophosphate, and 0.02 mM sodium orthovanadate and probed in blocking solution using anti-phospotyrosine (4G10) mouse monoclonal antibody (1:2000; EMD Milipore Corp., Billerica, Mass.). […]

RET [1] = target: T2, RET (Mus musculus, UniProt P35546); experiment: RET phosphorylation in control transfected (mGFP) N2A cells; assay type: cell-based, murine; settings: 2 nM GDNF or 1 nM ARTN
T2 construct: endogenous in cells
Method: as §1, with “reported. […]” for “reported.”

[2] = system: GFRα/RET receptor signaling; experiment: Tyrosine hydroxylase promoter luciferase reporter assay in SH-SY5Y-THpGL3 cells; assay type: cell-based, human; settings: for maximal effect, luciferase activity: 18 nM ligand alone; for minimal ligand dose necessary to induce luciferase activity above control / luciferase activity versus ligand concentration: ligand alone; for minimal ligand dose necessary to induce luciferase activity above control: 10 minutes, washout, overnight; for luciferase activity versus ligand concentration: luciferase measured 18 hours later
Source text: (§3) One goal of these studies was to determine if XIB4035 could be used for treating SFN in humans. Using the Neuro2A (N2A) murine neuroblastoma cell line, Tokugawa et al. (supra) reported XIB4035 as a competitive agonist for the GDNF receptor GFRα1 that activates the RET receptor. Since populations of DRG sensory neurons express different GFRα receptors, thus making them preferentially responsive to the particular ligands, it was important to determine if XIB4035 was specific to GFRα1 or could act on other family members. Since PSPN has no effect on peripheral sensory neurons, the GFRα1, GFRα2, and GFRα3 receptors were the focus of these studies. The SH-SY5Y, a human neuroblastoma cell line expressing mRNA for GFRα1, GFRα2, and GFRα3, was used to perform two cell-based assays; immunoblots measuring RET phosphorylation and a luciferase reporter assay using the tyrosine hydroxylase (TH) promoter. For the latter two paradigms were used, either overnight treatment immediately followed by luciferase activity measurements or 10 minute treatments followed by washout and overnight incubation prior to measurements. GDNF and ARTN induced robust TH-luciferase activity in a dose dependent manner (FIG. 3E). Because the responses to GDNF and ARTN were more robust, these two factors were chosen for further analysis.
The tyrosine hydroxylase promoter was cloned into the pGL3 basic vector (Promega, Madison, Wis., USA) at the Mlu I and Hind III sites, as previously described (Zwick, supra) (TH-pGL3). Briefly, a 2 Kb promoter region upstream from the transcription initiation site of the rat TH gene was cloned from genomic DNA using the primer sequences, […] and […]. SH-SY5Y cells were co-transfected with the TH-pGL3 and the pBabe-puromycin expression vectors at a molar ratio of 10:1. Cells were selected for stable puromycin resistance at a final concentration of 0.5 μg/ml of puromycin-dihydrochloride. Stable colonies were selected and tested for TH-directed luciferase response to GDNF family ligand stimulation. One stable clone, SH-SY5Y-THpGL3, with good signal-to-noise ratio was selected for use in the experiments.
SH-SY5Y-THpGL3 cells were maintained in DMEM/F12, 5% FBS, and 1% penicillin/streptomycin and plated on collagen coated plates (4 μg/ml). Neuro-2A cells were grown in MEM, 5% FBS, and 1% penicillin/streptomycin. BE(2)-C cells were grown in DMEM/F12 media containing 5% FBS and 1% penicillin/streptomycin. PC-12 cells were maintained in media containing RPMI-1640, 10% horse serum, 5% FBS, and 1% penicillin/streptomycin on collagen coated plates. For luciferase assays, cells were treated for either 10 minutes with washout or overnight with various molecules and assayed for firefly luciferase 16-24 hours post-treatment using the luciferase assay system (Promega, Madison, Wis., USA).

GFRα1/RET = target: T3, GFRα1/RET (UniProt P35546+Q62997); experiment: RET phosphorylation in N2A cells transfected with GFRα1; assay type: cell-based, rat GFRα1 in murine N2A cells; settings: 2 nM GDNF
T3 construct: N2A cells (which express RET) transfected with GFRα1 or GFRα3 expression constructs; expressed in transfected cells; host or cells: Neuro2A (N2A) cells; GFRα1 plasmid was a gift from Dr. Milbrandt; RET is endogenous
Method: as §1, §2

RET [3] = target: T4, RET (Homo sapiens, UniProt P07949+P56159); experiment: RET phosphorylation phospho-tyrosine Western blot in SH-SY5Y cells; assay type: cell-based; settings: 2 nM GDNF, two or 10 minutes
T4 construct: endogenous in cells; host or cells: SH-SY5Y (SH-SY5Y-THpGL3) human neuroblastoma cells
Source text: as §3
Since the original report argued that XIB4035 displaces GDNF binding to GFRα1 expressing cells (FIG. 2 in Tokugawa et al., Neurochem Int 42, 81-86 (2003).), potentially ARTN, on TH-luciferase activity and Ret phosphorylation. […] In this experiment, cells were treated with GDNF or ARTN with or without XIB4035 for 10 minutes and cell lysates were either collected immediately or treatment was washed out and replaced with growth media for 30, 60, or 120 minutes. […] Therefore, we tested cells expressing only one GFRα using either N2A cells (which express RET) transfected with GFRα1 or GFRα3 expression constructs, or B(E)2-C cells, which express only GFRα2 together with RET. […]

GFRα2/RET = target: T5, GFRα2/RET (Homo sapiens, UniProt O00451+P07949); experiment: NRTN/GFRα2-induced RET phosphorylation in B(E)2-C cells; assay type: cell-based; settings: 2 nM NRTN alone, 10 minutes, then 60 minutes growth medium
T5 construct: B(E)2-C cells, which express only GFRα2 together with RET; endogenous in cells; host or cells: B(E)2-C / BE(2)-C cells
Method: B(E)2-C cells, which express GFRα2, were treated under different conditions (no treatment, 2 nM NRTN, or 2 nM NRTN with 20 μM XIB4035) for 10 minutes. Cells were either lysed immediately or after incubation in growth medium for an additional 60 minutes.
as §1, with “Thus, XIB4035 is a positive modulator of signaling by GDNF family ligands and their receptors, not an agonist for GFRα1 as previously reported.” left out

T2 sequence (P35546 29-1115): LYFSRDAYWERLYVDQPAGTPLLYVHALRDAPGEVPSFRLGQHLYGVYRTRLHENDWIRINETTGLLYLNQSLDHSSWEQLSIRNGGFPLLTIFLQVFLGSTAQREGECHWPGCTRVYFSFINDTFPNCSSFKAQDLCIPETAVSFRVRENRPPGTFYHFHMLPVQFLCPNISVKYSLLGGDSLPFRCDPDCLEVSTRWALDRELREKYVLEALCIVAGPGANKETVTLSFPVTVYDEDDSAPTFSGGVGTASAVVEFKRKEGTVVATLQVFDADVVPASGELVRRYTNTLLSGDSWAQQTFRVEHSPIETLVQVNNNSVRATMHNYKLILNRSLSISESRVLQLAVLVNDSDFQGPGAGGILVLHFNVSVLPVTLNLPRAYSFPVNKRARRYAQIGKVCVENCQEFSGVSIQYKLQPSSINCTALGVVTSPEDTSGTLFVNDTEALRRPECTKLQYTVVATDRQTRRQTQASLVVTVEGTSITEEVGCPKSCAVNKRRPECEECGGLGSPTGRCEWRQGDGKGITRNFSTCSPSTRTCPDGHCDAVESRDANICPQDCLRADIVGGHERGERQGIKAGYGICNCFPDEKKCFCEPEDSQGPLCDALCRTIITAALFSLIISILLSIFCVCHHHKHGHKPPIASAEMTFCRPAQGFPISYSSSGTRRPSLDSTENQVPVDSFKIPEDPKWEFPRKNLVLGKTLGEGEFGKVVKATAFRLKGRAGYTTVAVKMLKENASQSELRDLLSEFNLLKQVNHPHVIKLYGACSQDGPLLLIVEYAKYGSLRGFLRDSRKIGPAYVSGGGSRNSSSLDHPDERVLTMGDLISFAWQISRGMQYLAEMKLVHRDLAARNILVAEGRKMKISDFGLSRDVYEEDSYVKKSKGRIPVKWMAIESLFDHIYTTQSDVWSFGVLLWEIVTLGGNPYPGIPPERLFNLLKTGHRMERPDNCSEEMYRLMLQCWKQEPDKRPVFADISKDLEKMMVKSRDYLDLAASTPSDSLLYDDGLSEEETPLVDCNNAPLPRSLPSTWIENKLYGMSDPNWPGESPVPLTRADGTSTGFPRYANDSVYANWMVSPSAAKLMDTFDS
T1 sequence (O60609 32-374 limits assumed): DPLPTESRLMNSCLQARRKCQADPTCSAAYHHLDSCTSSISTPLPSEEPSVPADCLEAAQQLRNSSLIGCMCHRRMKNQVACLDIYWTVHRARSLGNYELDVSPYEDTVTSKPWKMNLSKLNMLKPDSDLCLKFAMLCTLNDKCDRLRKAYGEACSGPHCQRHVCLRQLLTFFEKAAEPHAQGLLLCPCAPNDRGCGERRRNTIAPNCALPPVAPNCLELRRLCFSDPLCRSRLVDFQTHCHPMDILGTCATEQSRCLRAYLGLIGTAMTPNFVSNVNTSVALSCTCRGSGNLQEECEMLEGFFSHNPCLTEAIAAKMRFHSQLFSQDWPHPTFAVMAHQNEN
T1 sequence (P35546 29-1115): as the sequence (P35546 29-1115) above
T3 sequence (Q62997 25-430 limits assumed): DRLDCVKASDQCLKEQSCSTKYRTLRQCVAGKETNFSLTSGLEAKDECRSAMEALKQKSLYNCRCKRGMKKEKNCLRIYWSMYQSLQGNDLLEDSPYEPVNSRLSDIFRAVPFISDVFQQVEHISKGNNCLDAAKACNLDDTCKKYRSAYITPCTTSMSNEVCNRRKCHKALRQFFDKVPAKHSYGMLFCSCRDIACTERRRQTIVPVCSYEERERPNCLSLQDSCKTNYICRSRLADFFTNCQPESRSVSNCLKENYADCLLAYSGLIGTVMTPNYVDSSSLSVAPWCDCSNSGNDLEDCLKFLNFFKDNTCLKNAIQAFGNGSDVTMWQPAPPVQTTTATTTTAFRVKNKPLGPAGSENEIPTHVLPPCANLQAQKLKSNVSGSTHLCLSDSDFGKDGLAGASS
T3 sequence (P35546 29-1115): as the sequence (P35546 29-1115) above
T4 sequence (P07949 29-1114): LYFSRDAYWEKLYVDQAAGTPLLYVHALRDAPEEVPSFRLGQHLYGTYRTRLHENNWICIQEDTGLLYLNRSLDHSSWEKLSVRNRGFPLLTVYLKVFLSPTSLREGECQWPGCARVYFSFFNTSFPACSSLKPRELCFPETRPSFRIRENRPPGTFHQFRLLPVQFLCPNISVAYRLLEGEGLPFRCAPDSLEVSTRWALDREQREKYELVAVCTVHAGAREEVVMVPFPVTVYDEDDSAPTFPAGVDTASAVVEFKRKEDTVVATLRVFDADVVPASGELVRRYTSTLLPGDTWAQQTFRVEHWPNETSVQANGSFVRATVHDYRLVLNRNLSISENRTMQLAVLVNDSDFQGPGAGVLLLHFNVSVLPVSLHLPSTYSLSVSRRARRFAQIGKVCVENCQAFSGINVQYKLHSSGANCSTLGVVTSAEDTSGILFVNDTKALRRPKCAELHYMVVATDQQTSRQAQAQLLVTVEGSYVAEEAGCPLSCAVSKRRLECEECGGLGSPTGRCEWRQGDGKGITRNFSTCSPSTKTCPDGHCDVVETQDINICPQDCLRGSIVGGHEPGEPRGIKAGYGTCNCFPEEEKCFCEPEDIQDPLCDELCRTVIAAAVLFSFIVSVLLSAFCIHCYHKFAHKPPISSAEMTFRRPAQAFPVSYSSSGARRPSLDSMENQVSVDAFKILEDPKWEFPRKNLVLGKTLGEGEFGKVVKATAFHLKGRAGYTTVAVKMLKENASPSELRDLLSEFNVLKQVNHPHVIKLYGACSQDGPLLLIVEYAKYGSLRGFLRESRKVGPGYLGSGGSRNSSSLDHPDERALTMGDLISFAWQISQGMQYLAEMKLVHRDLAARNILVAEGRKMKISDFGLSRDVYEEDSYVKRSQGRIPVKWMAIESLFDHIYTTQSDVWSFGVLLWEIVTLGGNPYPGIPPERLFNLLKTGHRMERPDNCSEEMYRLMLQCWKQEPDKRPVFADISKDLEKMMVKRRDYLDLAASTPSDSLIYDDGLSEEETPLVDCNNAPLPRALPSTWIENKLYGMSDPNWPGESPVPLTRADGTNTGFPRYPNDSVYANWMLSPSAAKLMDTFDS
T4 sequence (P56159 25-429 limits assumed): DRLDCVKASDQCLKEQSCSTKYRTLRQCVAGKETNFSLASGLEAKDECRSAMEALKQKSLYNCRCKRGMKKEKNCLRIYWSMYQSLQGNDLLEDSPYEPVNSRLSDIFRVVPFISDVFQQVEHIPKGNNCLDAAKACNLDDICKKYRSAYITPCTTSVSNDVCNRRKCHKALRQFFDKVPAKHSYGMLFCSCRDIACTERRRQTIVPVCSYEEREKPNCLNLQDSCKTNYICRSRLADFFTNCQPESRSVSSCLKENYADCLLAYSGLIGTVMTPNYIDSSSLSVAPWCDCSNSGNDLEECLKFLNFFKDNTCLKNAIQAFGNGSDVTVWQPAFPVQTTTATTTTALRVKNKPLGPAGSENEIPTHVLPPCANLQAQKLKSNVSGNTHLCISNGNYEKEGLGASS
T5 sequence (O00451 22-444 limits assumed): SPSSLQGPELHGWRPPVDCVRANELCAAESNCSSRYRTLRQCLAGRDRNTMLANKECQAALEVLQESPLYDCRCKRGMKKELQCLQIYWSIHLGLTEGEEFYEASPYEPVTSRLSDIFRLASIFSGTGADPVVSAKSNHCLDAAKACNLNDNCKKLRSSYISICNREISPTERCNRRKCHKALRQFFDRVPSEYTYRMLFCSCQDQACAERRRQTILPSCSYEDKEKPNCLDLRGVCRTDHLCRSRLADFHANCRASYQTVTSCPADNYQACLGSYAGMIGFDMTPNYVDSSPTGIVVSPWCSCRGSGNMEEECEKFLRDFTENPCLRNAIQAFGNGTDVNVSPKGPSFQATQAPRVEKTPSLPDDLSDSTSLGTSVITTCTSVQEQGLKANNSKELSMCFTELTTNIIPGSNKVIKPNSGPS
T5 sequence (P07949 29-1114): as the sequence (P07949 29-1114) above

RET phosphorylation (GFRα3/RET): induced RET phosphorylation
RET phosphorylation (RET [1]): No RET phosphorylation was detected
Molecule: ARTN: artemin, GDNF family ligand of GFRα3; purchased from Peprotech
maximal effect, luciferase activity [2]: 2.78±0.44 fold over control
minimal ligand dose necessary to induce luciferase activity above control [2]: 75 pM
luciferase activity versus ligand concentration [2]: dose-dependent increase

RET phosphorylation (RET [1]): No RET phosphorylation was detected
RET phosphorylation (GFRα1/RET): induced RET phosphorylation
RET phosphorylation (RET [3]): induced
B1: GDNF: Glial cell line-derived neurotrophic factor, GFRα1 ligand; purchased from Peprotech (protein, UniProt P39905 78-211, looked up)
Glial cell line-derived …: SPDKQMAVLPRRERNRQAAAANPENSRGKGRRGQRGKNRGCVLTAIHLNVTDLGLGYETKEELIFRYCSGSCDAAETTYDKILKNLSRNRRLVSDKVGQACCRPIAFDDDLSFLDDNLVYHILRKHSAKRCGCI
TH promoter activity (luciferase) ([2]; 2 nM GDNF, 10 minutes then overnight in regular medium, or overnight): increases TH promoter activity
maximal effect, luciferase activity [2]: 2.76±0.32 fold over control
minimal ligand dose necessary to induce luciferase activity above control [2]: 75 pM
luciferase activity versus ligand concentration [2]: dose-dependent increase

RET phosphorylation at 60 min (GFRα2/RET): not detectable
B2: NRTN: neuturin, GDNF family ligand of GFRα2; purchased from Peprotech (protein, UniProt Q99748 96-197, looked up)
Neurturin: ARLGARPCGLRELEVRVSELGLGYASDETVLFRYCAGACEAAARVYDLGLRRLRQRRRLRRERVRAQPCCRPTAYEDEVSFLDAHSRYHTVHELSARECACV
luciferase activity versus ligand concentration [2]: dose-dependent increase
